Consider two molecules from US11198871B2, “Riboswitch-mediated regulatory control of gene expression in thermophilic bacteria” (priority 2019, dated 2021).

Read-outs that look alike come from different tables or passages of the source.

This data set relates to sfGFP. Type of data set: cell-based, Geobacillus thermoglucosidasius. The following applies: for fold change (reduction) of maximal normalized fluorescence: 0.25 mM guanosine versus none; for maximal normalized fluorescence: mid-exponential growth, 55° C. As to the method:
To evaluate the T.s. riboswitches' regulatory activities, a thermophilic fluorescence reporter assay was used that included the use of super-folder green fluorescence protein (sfGFP) which is active in the aerobic thermophile, Geobacillus thermoglucosidasius (G.t.), at a growth temperature of 55° C. Both purine riboswitches from T.s. were inserted downstream of the pRp1S strong promoter respectively in plasmid pG1AK-sf such that the riboswitch controlled the expression of sfGFP once it was introduced into G.t. (see FIG. 2a and Table 1).
To trigger the regulatory response from the riboswitches, guanosine was used as the ligand as cells can import the compound and convert it into guanine enzymatically. […] As an additional control, a point mutation was introduced in the Tsac 2584 aptamer domain at position 74 (C74U). Position 74 is responsible for its interaction with guanine.
In an embodiment, and as depicted in FIG. 8, the normalized fluorescence of the cell culture is defined as: […]
To compare the normalized fluorescence between cultures growing with different ligand concentrations, the normalized fluorescence for each culture was averaged between the mid-log points where the OD was between 0.4 and 0.6.
G. thermoglucosidasius strains transformed with different plasmids were grown aerobically overnight in 5 ml TGP media (supplemental) with 12.5 μg/mL kanamycin at 55° C. and shaken at 200 rpm. The freshly grown overnight culture was used to inoculate 5 mL of fresh TGP media with kanamycin and incubated in the same condition for about 5 hrs when the cultures reached OD600 of about 1.0. This secondary growth culture was used to inoculate 5 ml of Defined Glucose Media (DG) with 250-fold dilution and was sub-aliquoted into a 96-well plate with 200 microliters per well where different concentrations of the effector ligand was added. The plate was incubated in a Greiner-Bio xxx plate reader and the OD600 and the fluorescence intensity (details of excitation and emission) was tracked for 24 hrs. To quantify the normalized fluorescence, the value of the raw fluorescence was taken when the cells were in mid-exponential phase (OD600 0.4-0.6) and divided by the optical density to normalize the fluorescence.

B1: Tsac 2588 (nucleic acid, listed as Thermoanaerobacterium saccharolyticum)
DNA: ATTGTGTCAGGACAAGTAAATAATAGCTCATATAATTCTGAGAATACGGCTCAGAAGTCTCTACCAGACAACCGTAAATTGTCTGACTATGAGTGAAAGTGTACCTGAGGGTTCCAGCCTTATTGTCCATGTGTAGAAAACAGTAAAGGCGTTCGGACCGAGCGGTACAGGCATTGTATTGCCACACCTGTGGGATAAAAGCCCGGGAGGATAGGTTTCACTCTATGTGTTGGAATCTATCATTCCGGGCTTGTTTATTTTTAAAATTCGTTTTTATTT
As for B1, the “fold change (reduction) of maximal normalized fluorescence” value is given as approximately 2.5 fold. Moreover, the maximal normalized fluorescence (0.25 mM guanosine) is 15±0.1 fluorescence units. Also, for the setting “with guanosine”, the “fluorescence in comparison to the control pG1AK parental plasmid” value is “about 30%”. This molecule returned a maximal normalized fluorescence (without guanosine) of 38±1 fluorescence units.

B2: Tsac 2584 (nucleic acid, listed as Thermoanaerobacterium saccharolyticum)
DNA: ATTGTGTCAGGACAAGTAAATAATAGCTCATATAATTCTGAGAATACGGCTCAGAAGTCTCTACCAGACAACCGTAAATTGTCTGACTATGAGTGAAAGTGTACCTGAGGGTTCCAGCCTTATTGTCCATGTGTAGAAAACAGTAAAGGCGTTCGGACCGAGCGGTACAGGCATTGTATTGCCACACCTGTGGGATAAAAGCCCGGGAGGATAGGTTTCACTCTATGTGTTGGAATCTATCATTCCGGGCTTGTTTATTTTTAAAATTCGTTTTTATTT
Turning to B2, the “fold change (reduction) of maximal normalized fluorescence” value is approximately 7 fold. For the same molecule, the maximal normalized fluorescence (0.25 mM guanosine) was 2.8±0.1 fluorescence units. The “guanosine-dependent repression of sfGFP” value (guanosine added, result in words) is on record as “tight repression”. The maximal normalized fluorescence (without guanosine) came to 20±2 fluorescence units.
